According to publication doi:10.1101/2025.05.20.655083, “Importin α/β1 dependent nuclear import of Black Sea Bass Polyomavirus Large Tumor Antigen is mediated by a classical NLS located downstream of the SF3 helicase domain” (bioRxiv, 2025):
Where no end group is shown, it is not given here. The star is where a group is joined. FITC = O=C1OC2(c3ccc(O)cc3Oc3cc(O)ccc32)c2ccc(NC(=S)*)cc21; Ahx = NCCCCCC(=O)O

What was measured:
Experiment in all cases: native gel or EMSA; 1.5% agarose gel in TB buffer (0.45 mM tris, 0.45 mM boric acid, pH ~8.5), 2 hours at 75 V; recombinant IMPs 20 μM, FITC peptides 10 μM; peptides seen with a UV filter, proteins by Coomassie staining
Details in all cases: both partners purified
[1] = molecular target: T1, human importin β1 (human, UniProt Q14974 1-876)
T1 construct: human importin β1; In pMCSG21 with His tag and TEV site; no cleavage step is described in the purification; also called hIMPβ1; IMPβ1; source: E. coli BL21(DE3)pLysS, purified (HisTrap, Superdex 200 SEC)

[2] = molecular target: T2, human importin β2 (human, UniProt Q92973 1-898)
T2 construct: human importin β2; In pET30a with His tag and TEV site; no cleavage step is described in the purification; also called hIMPβ2; IMPβ2; source: E. coli BL21(DE3)pLysS, purified (HisTrap, Superdex 200 SEC)
T2 sequence (looked up): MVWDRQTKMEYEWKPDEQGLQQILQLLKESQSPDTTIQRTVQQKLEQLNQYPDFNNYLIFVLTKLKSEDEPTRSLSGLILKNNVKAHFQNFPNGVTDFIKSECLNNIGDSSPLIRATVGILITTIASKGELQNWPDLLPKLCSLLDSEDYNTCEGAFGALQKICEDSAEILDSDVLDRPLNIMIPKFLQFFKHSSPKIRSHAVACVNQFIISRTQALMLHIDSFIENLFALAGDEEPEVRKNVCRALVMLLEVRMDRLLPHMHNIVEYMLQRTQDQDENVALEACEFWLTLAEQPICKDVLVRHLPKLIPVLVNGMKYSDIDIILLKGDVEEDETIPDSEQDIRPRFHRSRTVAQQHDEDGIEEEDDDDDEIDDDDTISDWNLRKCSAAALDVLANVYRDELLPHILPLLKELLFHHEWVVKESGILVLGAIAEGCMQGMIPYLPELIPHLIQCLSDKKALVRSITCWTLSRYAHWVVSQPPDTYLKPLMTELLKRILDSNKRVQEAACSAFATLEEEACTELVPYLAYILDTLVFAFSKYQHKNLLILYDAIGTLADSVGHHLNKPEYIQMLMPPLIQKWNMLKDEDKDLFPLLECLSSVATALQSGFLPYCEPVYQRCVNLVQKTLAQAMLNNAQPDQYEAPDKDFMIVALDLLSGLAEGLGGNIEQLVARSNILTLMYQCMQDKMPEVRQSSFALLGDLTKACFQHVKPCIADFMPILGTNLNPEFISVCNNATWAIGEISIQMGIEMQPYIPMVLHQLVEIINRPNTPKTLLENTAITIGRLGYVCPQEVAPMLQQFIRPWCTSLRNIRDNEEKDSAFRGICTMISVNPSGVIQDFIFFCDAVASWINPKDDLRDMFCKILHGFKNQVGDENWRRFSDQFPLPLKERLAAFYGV

[3] = molecular target: T3, human importin β3 (human, UniProt O00410 1-1097)
T3 construct: human importin β3; In pET30a with His tag and TEV site; no cleavage step is described in the purification; also called hIMPβ3; IMPβ3; source: E. coli BL21(DE3)pLysS, purified (HisTrap, Superdex 200 SEC)
T3 sequence (looked up): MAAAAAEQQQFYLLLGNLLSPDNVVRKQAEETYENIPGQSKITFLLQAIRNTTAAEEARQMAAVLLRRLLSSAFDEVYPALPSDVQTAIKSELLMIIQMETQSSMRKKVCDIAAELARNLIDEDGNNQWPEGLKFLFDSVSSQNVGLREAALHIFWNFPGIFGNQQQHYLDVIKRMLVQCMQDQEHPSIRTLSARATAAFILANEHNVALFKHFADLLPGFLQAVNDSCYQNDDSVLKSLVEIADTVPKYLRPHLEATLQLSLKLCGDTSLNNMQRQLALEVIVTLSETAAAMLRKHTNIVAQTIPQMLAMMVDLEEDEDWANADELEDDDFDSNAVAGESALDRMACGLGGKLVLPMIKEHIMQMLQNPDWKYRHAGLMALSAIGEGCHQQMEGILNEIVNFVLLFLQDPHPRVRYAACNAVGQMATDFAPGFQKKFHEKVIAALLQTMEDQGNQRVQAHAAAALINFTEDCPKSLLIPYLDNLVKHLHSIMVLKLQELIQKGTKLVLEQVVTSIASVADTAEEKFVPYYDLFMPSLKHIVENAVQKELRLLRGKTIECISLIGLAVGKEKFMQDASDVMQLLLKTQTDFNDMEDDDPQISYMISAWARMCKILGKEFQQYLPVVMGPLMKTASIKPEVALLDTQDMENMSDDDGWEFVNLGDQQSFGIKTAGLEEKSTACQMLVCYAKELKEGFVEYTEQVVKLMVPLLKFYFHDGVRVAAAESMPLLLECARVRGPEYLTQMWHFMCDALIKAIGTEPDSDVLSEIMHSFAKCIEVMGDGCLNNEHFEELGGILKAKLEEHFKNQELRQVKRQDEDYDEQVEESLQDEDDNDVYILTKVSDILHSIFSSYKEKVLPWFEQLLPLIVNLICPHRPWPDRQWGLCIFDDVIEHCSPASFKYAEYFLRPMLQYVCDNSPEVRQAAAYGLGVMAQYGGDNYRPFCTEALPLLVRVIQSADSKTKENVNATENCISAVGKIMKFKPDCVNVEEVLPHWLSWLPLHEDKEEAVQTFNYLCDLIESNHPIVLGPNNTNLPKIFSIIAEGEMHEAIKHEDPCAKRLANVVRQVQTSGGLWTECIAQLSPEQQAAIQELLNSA

Measured: binding result

T1 sequence (Q14974 whole entry): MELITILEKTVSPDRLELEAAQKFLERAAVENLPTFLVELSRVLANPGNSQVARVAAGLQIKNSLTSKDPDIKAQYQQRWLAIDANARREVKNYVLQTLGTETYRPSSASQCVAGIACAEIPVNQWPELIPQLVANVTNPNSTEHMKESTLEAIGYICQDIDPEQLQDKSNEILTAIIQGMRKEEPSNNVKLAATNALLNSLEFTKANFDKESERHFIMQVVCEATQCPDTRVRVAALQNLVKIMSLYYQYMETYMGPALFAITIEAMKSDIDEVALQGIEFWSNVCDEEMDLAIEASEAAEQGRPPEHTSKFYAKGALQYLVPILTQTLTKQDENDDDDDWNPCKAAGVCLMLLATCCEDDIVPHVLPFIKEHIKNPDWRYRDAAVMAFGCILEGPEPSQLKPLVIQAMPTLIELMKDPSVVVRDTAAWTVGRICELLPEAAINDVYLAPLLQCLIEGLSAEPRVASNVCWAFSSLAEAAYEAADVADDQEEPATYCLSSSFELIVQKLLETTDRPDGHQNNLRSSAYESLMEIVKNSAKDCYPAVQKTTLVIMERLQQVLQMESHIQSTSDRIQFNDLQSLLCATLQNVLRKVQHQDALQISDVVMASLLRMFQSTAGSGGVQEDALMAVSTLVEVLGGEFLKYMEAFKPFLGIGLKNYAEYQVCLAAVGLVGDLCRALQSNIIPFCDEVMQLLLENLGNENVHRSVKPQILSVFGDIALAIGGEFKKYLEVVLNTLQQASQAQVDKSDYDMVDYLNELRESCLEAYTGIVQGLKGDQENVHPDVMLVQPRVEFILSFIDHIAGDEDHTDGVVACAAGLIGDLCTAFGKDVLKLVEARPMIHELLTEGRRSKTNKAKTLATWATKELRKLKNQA

B1: BSB PyV-LTA;NLS peptide (Black Sea Bass polyomavirus large tumor antigen residues 660-683) (peptide)
peptide: {FITC-Ahx}-IAEYKRRHNIGSDGLPNKRRRCLF
notes: also called BSB PyV-LTA 660-683; BSBPyV LTA FITC-NLS peptide
binds: [1] | [2] | [3]
